Experimental data: the supplement of paper PMC10567573
± gives the standard deviation.

Assay: protein stability index of a GFP-peptide fusion (GPS, HEK-293T) (PSI 1-6); higher = more stable
Conditions: c terminus: a fixed tail appended
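Also: 24-mer peptide tiles fused after GFP, lentivirally expressed, FACS-sorted into six equal bins by GFP/DsRed ratio, decoded by Illumina sequencing, PSI is the read-weighted mean bin number.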

Sequence | protein stability index (treatment: DMSO) | protein stability index (treatment: MLN4924 1 uM, 8 h)
CQGVSEAAHRLARRLYHLEGFQRC [PSD2] | 2.41 ± 0.21 | 2.54 ± 0.17
LQKKLDNLQCLYCEKTFRDKNTLK [ZNF277] | 2.64 ± 0.25 | 2.86 ± 0.3
LEKGLEPEPQVPGPAHGPAQEEPW [ZNF232] | 5.35 ± 0.46 | 5.35 ± 0.25
AFRSDDTKGHPRAVSQPFRLSSSL [CDC14A] | 3.43 ± 0.2 | 3.47 ± 0.26
CPLTRSNGDLSRSLSPSPLGSSAA [FCHO1] | 4.17 ± 0.22 | 4.17 ± 0.33
LMGEIAKATFMYEQFPELMNMLWS [CLINT1] | 2.61 ± 0.62 | 2.33 ± 0.32
SGAGRRKNATRETTSTLKAWLNEH [IRX6] | 3.55 ± 0.28 | 3.58 ± 0.23
DPLPAAAVGAAAEAEADEEADPPA [SNX8] | 5.59 ± 0.3 | 5.71 ± 0.14
MAEISRIQYEMEYTEGISQRMRVP [MFF] | 2.67 ± 0.3 | 2.79 ± 0.6
AERRRAGRLLLTLPLLRQTAGKVL [ESRRA] | 2.348 ± 0.02 | 2.27 ± 0.23
NNSNLQRMGSSESTDSGFCLDSPG [CDC25A] | 4.43 ± 0.92 | 4.8 ± 0.3
GSLRTLELGSESQGASESQAPGEE [HDAC6] | 5.52 ± 0.29 | 5.58 ± 0.22
EAEDQEEKEDAEKENIEKDEDDVD [SRPK2] | 5.66 ± 0.32 | 5.79 ± 0.2
REFKVTDARDGQSRTVRQFQFTDW [PTPRD] | 3.16 ± 0.34 | 3.11 ± 0.58
EPQSEPVRVLDMVAKLESECLKRQ [FBXO34] | 4.88 ± 0.28 | 4.9 ± 0.054
HVTNAMVLVNVLQAIYVIDFFWNE [DHCR7] | 3.08 ± 0.17 | 2.99 ± 0.34
LRFSGVNDTDFRVYLLGNPVVWWL [POMT2] | 2.85 ± 0.43 | 2.96 ± 0.6
VEVDESEPYPSQLLKPIPEYSPEE [TRAF3IP2] | 5.48 ± 0.44 | 5.46 ± 0.35
EKRGCPRTALEYCKLILSLEPDED [TCF25] | 3.37 ± 0.17 | 3.42 ± 0.097
DSFVCQCSEGFLINEDLKTCSRVD [MATN2] | 3.57 ± 0.38 | 3.9 ± 0.45
GSIEYSCPASNECEITKRRRKACQ [ESRRA] | 4.88 ± 0.23 | 4.97 ± 0.25
TQELVAIKIIKNKKAFLNQAQIEL [DYRK1B] | 2.18 ± 0.27 | 2.17 ± 0.3

Sequence | protein stability index (treatment: DMSO) | protein stability index (treatment: MLN4924 1 uM, 8 h)
EKNFFPEYNYDWWEKKPFSEDVNW [CHGB] | 2.78 ± 0.54 | 2.76 ± 0.47
NSTSYSNYYRTWNVVVHDWLYYYA [SOAT1] | 2.63 ± 0.52 | 2.56 ± 0.55
IHSHHDGVLRPTVRPGTPPDFILK [CTDNEP1] | 3.66 ± 0.18 | 3.72 ± 0.21
DLRTVDPETQARLEALLEAAGIGK [ANKRD17] | 3.84 ± 0.36 | 3.94 ± 0.16
FAPLWEVFRVSSDKLALCHLELTR [FCHO1] | 2.68 ± 0.36 | 2.52 ± 0.29
FPYFRSDRDKRDFVSAGAAAGVAA [CLCN6] | 3.63 ± 0.45 | 3.82 ± 0.23
YLPPERIREKSRLFDTKHDVYSFA [RIPK4] | 2.62 ± 0.24 | 2.72 ± 0.25
AEKLCIYTDNSIRPEELLQMELLL [CCND1] | 2.28 ± 0.078 | 2.09 ± 0.36
HSVTGFLCEPDPVHFSEAIEKFIR [ALG2] | 2.8 ± 0.21 | 2.93 ± 0.26
TAIRPLKILPWSPEKIGTRFLLYT [PNLIPRP1] | 2.23 ± 0.21 | 2.37 ± 0.24
CEEKAKKNANRPLLDEIVPVYRRD [ACBD3] | 4.72 ± 0.18 | 4.61 ± 0.55
EEMRELRRKIRELQLRYSLRILIG [BEX5] | 2.76 ± 0.75 | 2.5 ± 0.51
NAKAHCGATALHFAAEAGHIDIVK [FEM1B] | 2.59 ± 0.36 | 2.62 ± 0.17
EGVATYAAAVLFRMSEDKPQDYKK [CTNNB1] | 3.45 ± 0.17 | 3.46 ± 0.21
LVGDSDVGKGEILASLQDGAAESP [RAB40B] | 5.18 ± 0.17 | 5.36 ± 0.32
GLAIHCMQVHKETIDAVPNAIPGR [ZNF207] | 2.94 ± 0.18 | 3.04 ± 0.16
FYKRRGASDLSSEEGWRLFKIDKE [SAT1] | 3.32 ± 0.21 | 3.62 ± 0.49
TNCWLIRELNLPFGGMKSSGIGRE [ALDH8A1] | 2.31 ± 0.41 | 2.29 ± 0.33
DSGGSDVDLDPTDGKLFPSDGFRD [ELF3] | 5.38 ± 0.16 | 5.42 ± 0.15
SLGYKEIRKGESRSEALAVDGAGK [CHGA] | 5.03 ± 0.52 | 4.95 ± 0.31
IGIPLFFLELAVGQRIRRGSIGVW [SLC6A17] | 2.51 ± 0.34 | 2.28 ± 0.23
VDYKQSVLNVAGEAGGKQKAVEEE [SLC6A17] | 5.52 ± 0.44 | 5.68 ± 0.3

Sequence | protein stability index (treatment: DMSO) | protein stability index (treatment: MLN4924 1 uM, 8 h)
LMLELKSLQEEPVEGFRITLVDES [UBE2R2] | 2.6 ± 0.39 | 2.77 ± 0.17
VSTWFANARRRLKKENKMTWAPKN [IRX6] | 2.57 ± 0.22 | 2.75 ± 0.13
ECFETLRGDERILSILRHQNLLKE [CHGA] | 2.9 ± 0.24 | 2.85 ± 0.34
LSLLTNRGSKMFKLRQMRVEKFIY [MYOZ1] | 2.13 ± 0.34 | 2.38 ± 0.14
VALPTEAEFQLVRDVVLCSLLNFL [TENT5C] | 2.14 ± 0.28 | 2.13 ± 0.37
SAVADKLDNSRSILKRRYYRQHCT [CTDNEP1] | 3.24 ± 0.33 | 3.7 ± 0.49
MFGLVIPLGVLQAIAMYFLPPSPR [SLC2A12] | 2.46 ± 0.64 | 2.53 ± 0.64
LFSDDYGGKNCKKPAEYGYVSLGR [CEBPB] | 3.02 ± 0.31 | 3.2 ± 0.33
CSSFMAPPVTDLGELRRRPGDMKT [CPOX] | 3.43 ± 0.3 | 3.31 ± 0.48
QEPDFIDDIEEKTPISNEVEMESE [KMT2E] | 5.24 ± 0.22 | 5.43 ± 0.23
VKRKKNVLRLCCKKLKIFAMPMQD [PRAME] | 2.29 ± 0.37 | 2.2 ± 0.15
VLSEGSPLTEQEESSPSHDRSRTV [SRPK2] | 5.35 ± 0.33 | 5.32 ± 0.25
LENLCENASTLRTINIKCHVHDPH [FBXO39] | 3.59 ± 0.27 | 3.59 ± 0.036
ASTPTPDDKLFQKLAKVYSYAHGW [CPN1] | 2.38 ± 0.14 | 2.33 ± 0.26
PDSFYELKSQPLPLRSSLPISLQA [TFE3] | 3.14 ± 0.15 | 3.26 ± 0.29
EEVVSTLDAVQVLSGVSQLLPKSR [FCHO1] | 4.3 ± 0.28 | 4.43 ± 0.24
ELVYADDYIMDEDQSKLAGLLDLN [ESRRG] | 3.48 ± 0.21 | 3.68 ± 0.21
AGAARVARWRRLRLQQLRRLRGLL [FBXO33] | 3.13 ± 0.4 | 3.74 ± 0.43
LDQAPKARKYFERLPGGGWTLRRT [DYRK1B] | 3.48 ± 0.27 | 3.33 ± 0.33
PPSEPVPSLEDISCNTWPSMPSYS [TBX5] | 4.269 ± 0.038 | 4.38 ± 0.19
ELLVYIVFLVDICLLTYGMTSSSA [PKD2L1] | 3.19 ± 0.45 | 2.93 ± 0.67
